Substitutions are numbered along the chain they refer to. Numbers in names are those of the source.
B1: IGF2R domain 11^WT (receptor)
chain: MKSNEHDDCQVTNPSTGHLFDLSSLSGRAGFTAAYSEKGLVYMSICGENENCPPGVGACFGQTRISVGKANKRLRYVDQVLQLVYKDGSPCPSKSGLSYKSVISFVCRPEAGPTNRPMLISLDKQTCTLFFSWHTPLACEQATECSV
notes: Soluble His6-tagged domain 11 from P. pastoris and/or E. coli; also called wild-type domain 11
B2: domain 11^AB5 W1546F (receptor)
chain: B1 chain with S36A, E37K, K38G, G39F, L40G
notes: See m5
B3: IGF2R domain 11^AB3 (receptor)
chain: B1 chain with E37K, K38S, L40V
notes: His6-tagged soluble domain 11; also called domain 11^E1544K, K1545S, L1547V; 1542YSKSGV1547
B4: domain 11^AB5 + 51F (HI-NRQS) (receptor)
chain: B1 chain with S36A, E37K, K38G, G39W, L40G, D123N, K124R, T126S
notes: See m5; Protein quality poor
B5: domain 11^AB5 K1601R (receptor)
chain: B1 chain with S36A, E37K, K38G, G39W, L40G, K94R
notes: See m5
B6: domain 11^WT + 27G (HI-NMAL) (receptor)
chain: B1 chain with D123N, K124M, Q125A, T126L
notes: See m5; Protein quality poor
B7: domain 11^WT + 312G (HI-VKLM) (receptor)
chain: B1 chain with D123V, Q125L, T126M
notes: See m5; Protein quality poor
B8: domain 11^AB5 S1602Q (receptor)
chain: B1 chain with S36A, E37K, K38G, G39W, L40G, S95Q
notes: See m5
B9: domain 11^WT + 23D (HI-HFQS) (receptor)
chain: B1 chain with D123H, K124F, T126S
notes: See m5; Protein quality poor based on absorption spectra
B10: domain 11^AB3 P1597K (receptor)
chain: B1 chain with E37K, K38S, L40V, P90K
notes: See m5
B11: domain 11^WT + 26C (HI-DMQT) (receptor)
chain: B1 chain with K124M
notes: See m5; Protein quality poor
B12: Fc-domain 11^AB5-RHH (IGF2-TRAP) (Fc fusion, not shown: a dimerising Fc or GST)
chain: NEHDDCQVTNPSTGHLFDLSSLSGRAGFTAAYAKGWGVYMSICGENENCPPGVGACFGRTRISVGKANKRLRYVDQVLQLVYKDGSHCPSKHGLSYKSVISFVCRPEAGPTNRPMLISLDKQTCTLFFSWHTPLACEQAT
notes: RHH is not defined in words; read as Q1569R P1597H S1602H on AB5; IgG2 Fc is stated for the CHO product; also called IgG2 Fc-domain 11^AB5-RHH; Fc-domain 11^RHH
B13: Fc-domain 11^I1572A fusion protein (Fc fusion)
chain: B12 chain with A33S, K34E, G35K, W36G, G37L, R59Q, I62A, H87P, H92S
notes: not shown: human IgG Fc

Columns and labels:
[1] = biological target: T1, human IGF2^1-67 (mature insulin-like growth factor 2) (human, UniProt P01344 25-91, biotinylated (site not stated) where immobilised on the chip (Tables 1-4)); assay: SPR kinetic, biotin-IGF2 on chip
T1 construct: mature; also called mature IGF2; biotinylated IGF2
T1 sequence (P01344 25-91): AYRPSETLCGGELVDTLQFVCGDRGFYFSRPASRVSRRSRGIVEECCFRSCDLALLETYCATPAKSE
Procedure: (§1) Final kinetic analysis of mutants by SPR was conducted using a Biacore T200 biosensor at 25° C. in either HBS-EP (10 mM HEPES pH 7.4, 150 mM NaCl, 3 mM EDTA, and 0.005% (v/v) surfactant P20) or MES-EP (20 mM MES pH 6.5, 150 mM NaCl, 3 mM EDTA, and 0.005% (v/v) surfactant P20) at a flow-rate of 40 μL min⁻¹. […] For the analysis of the Fc-domain 11^AB5 interaction, approximately 50 RU of a biotinylated IGF2:biotinylated ubiquitin mixture (1:8 proportion) was immobilized on the CM5-streptavidin chip. This interaction was also analysed by immobilizing the Fc-domain 11^AB5 and Fc-domain 11^AB5-RHH (or Fc-domain 11^I1572A as control) by Human Antibody Capture (monoclonal mouse anti-human IgG antibody immobilised on a CM5 chip by amine coupling, GE Healthcare) with and without human IgG1 Fc fragment (Bethyl Laboratories, UK) in the control flow cell. […] T200 BiaEvaluation software (GE Healthcare) was used to fit the resulting curves according to a 1:1 binding model. Steady state affinities were determined using the kinetic data, taking the response average at 5 seconds before injection end and for 5 seconds average. Thermodynamic data was performed across the temperature range of 10° C. to 30° C., van't Hoff and Erying plots generated and ΔH, −TΔS and ΔG values determined as previously described.

[2] = biological target: T1, human IGF2^1-67 (mature insulin-like …); assay: SPR steady state, biotin-IGF2 on chip
Procedure: as §1

[3] = biological target: T1, human IGF2^1-67 (mature insulin-like …); assay: SPR kinetic, biotin-IGF2 on chip, pH 7.4
Source text: (§2) Surface plasmon resonance (SPR) binding analysis of recombinant M6P/IGF2R domain 11 mutants interaction with IGF2. Kon indicates association (on) rate; koff, dissociation (off) rate; RU, response units. Binding to IGF2 assessed with BIAcore T200 using purified biotinylated IGF2 and IGF1 on a streptavidin biosensor chip. Recombinant proteins were expressed either in E. coli and/or P. pastoris. All the mutants in the FG and CD loops are on the domain 11^AB5 background for the AB loop unless otherwise stated. All experiments were carried out at 25° C. in HBS-EP buffer (pH 7.4), were repeated 2-5 times on two independent BIAcore chips. nd=not determined. Data for KD expressed as mean of each experiment, and means of kon and koff are shown.
as §1, with “average.” for “average. Thermodynamic data was performed across the temperature range of 10° C. to 30° C., van't Hoff and Erying plots generated and ΔH, −TΔS and ΔG values determined as previously described.”

[4] = biological target: T1, human IGF2^1-67 (mature insulin-like …); assay: SPR kinetic, biotin-IGF2 on chip, pH 6.5
Procedure: Measurements were carried out at 25° C. in MES-EP buffer, 20 mM MES pH 6.5, 150 mM NaCl, 3 mM EDTA, and 0.005% (v/v) surfactant P20). Data for KD expressed as mean of each experiment, and means of kon and koff are shown.
as §1

[5] = biological target: T1, human IGF2^1-67 (mature insulin-like …); assay: SPR steady state, biotin-IGF2 on chip, pH 7.4
Source text: as §2
as §1, with “average.” for “average. Thermodynamic data was performed across the temperature range of 10° C. to 30° C., van't Hoff and Erying plots generated and ΔH, −TΔS and ΔG values determined as previously described.”

[6] = biological target: T1, human IGF2^1-67 (mature insulin-like …); assay: SPR
Source text: as §2
as §1, with “model.” for “model. Steady state affinities were determined using the kinetic data, taking the response average at 5 seconds before injection end and for 5 seconds average. Thermodynamic data was performed across the temperature range of 10° C. to 30° C., van't Hoff and Erying plots generated and ΔH, −TΔS and ΔG values determined as previously described.”

[7] = biological target: T1, human IGF2^1-67 (mature insulin-like …); assay: SPR kinetic, biotin-IGF2 on chip, pH 7.4; remark: listed apart in the source
Procedure: as §1

[8] = biological target: T1, human IGF2^1-67 (mature insulin-like …); assay: SPR steady state, biotin-IGF2 on chip, pH 7.4; remark: listed apart in the source
Procedure: as §1

[9] = biological target: T1, human IGF2^1-67 (mature insulin-like …); assay: SPR kinetic, Fc fusion captured by anti-human IgG, pH 7.4
Procedure: (§3) SPR analysis of the interaction of recombinant IGF1 and IGF2 forms with Fc-domain 11 proteins immobilised by antibody capture (CM5 chip containing monoclonal mouse anti-human IgG antibody immobilised by amine coupling). Measurements were carried out at 25° C. in HBS-EP buffer (pH 7.4).
as §1

pro-IGF2^1-104 = pro-IGF2^1-104 (UniProt P01344 25-128); assay: as above
Sequence of pro-IGF2^1-104 (P01344 25-128 limits assumed): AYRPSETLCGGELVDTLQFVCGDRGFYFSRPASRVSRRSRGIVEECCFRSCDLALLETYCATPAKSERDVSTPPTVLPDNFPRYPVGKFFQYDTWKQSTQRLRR
Procedure: as §3, §1

pro-IGF2^1-156 = biological target: T2, pro-IGF2^1-156 (UniProt P01344 25-180); assay: as above
T2 construct: range 1-156
T2 sequence (P01344 25-180 limits assumed): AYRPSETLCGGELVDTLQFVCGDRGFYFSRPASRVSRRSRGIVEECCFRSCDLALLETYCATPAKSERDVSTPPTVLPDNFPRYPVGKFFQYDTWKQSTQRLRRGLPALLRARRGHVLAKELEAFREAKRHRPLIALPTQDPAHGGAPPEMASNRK
Procedure: as §3, §1

Row | Binder | Kd [1] | koff [1] | kon [1] | Kd [2] | Kd [3] | koff [3] | kon [3] | Kd [5] | further results
1 | B1 | 46 nM | 0.23 s⁻¹ | 5e+06 M⁻¹ s⁻¹ | 64 nM | 46 nM | 0.23 s⁻¹ | 5e+06 M⁻¹ s⁻¹ | 64 nM | Kd [4]: 35.1 nM; koff [4]: 0.144 s⁻¹; kon [4]: 2.68e+06 M⁻¹ s⁻¹
2 | B2 | – | – | – | – | 4.35 nM | 0.018 s⁻¹ | 4.5e+06 M⁻¹ s⁻¹ | 5 nM | fold reduction of koff [6]: 2 fold
3 | B3 | 15.3 nM | 0.044 s⁻¹ | 2.76e+06 M⁻¹ s⁻¹ | 15.5 nM | 15.3 nM | 0.044 s⁻¹ | 2.76e+06 M⁻¹ s⁻¹ | 15.5 nM | Kd [7]: 15.3 nM; koff [7]: 0.044 s⁻¹; kon [7]: 2.76e+06 M⁻¹ s⁻¹; Kd [4]: 11.8 nM; koff [4]: 0.0381 s⁻¹; kon [4]: 3.43e+06 M⁻¹ s⁻¹; Kd [8]: 15.5 nM
4 | B4 | 13.5 nM | 0.1 s⁻¹ | 7.4e+06 M⁻¹ s⁻¹ | 6.94 nM | – | – | – | – | –
5 | B5 | – | – | – | – | 4.75 nM | 0.0251 s⁻¹ | 5.28e+06 M⁻¹ s⁻¹ | 5.78 nM | fold improvement of affinity [6]: ≤ 2 fold
6 | B6 | 195 nM | 0.25 s⁻¹ | 2e+06 M⁻¹ s⁻¹ | 194 nM | – | – | – | – | –
7 | B7 | 119 nM | 0.15 s⁻¹ | 1.07e+06 M⁻¹ s⁻¹ | 135 nM | – | – | – | – | –
8 | B8 | – | – | – | – | 3.61 nM | 0.0191 s⁻¹ | 5.88e+06 M⁻¹ s⁻¹ | 5.11 nM | fold improvement of affinity [6]: ≤ 2 fold
9 | B9 | 176 nM | 0.065 s⁻¹ | 250000 M⁻¹ s⁻¹ | 220 nM | – | – | – | – | –
10 | B10 | – | – | – | – | – | – | – | – | fold change of KD against domain 11^AB3 [6]: 6 fold; fold reduction of koff against domain 11^AB3 [6]: 2 fold; Kd [7]: 2.78 nM; koff [7]: 0.0287 s⁻¹; kon [7]: 1.05e+07 M⁻¹ s⁻¹; Kd [8]: 3.59 nM
11 | B11 | 130 nM | 0.24 s⁻¹ | 1.89e+06 M⁻¹ s⁻¹ | 127 nM | – | – | – | – | –
12 | B12 | – | – | – | – | – | – | – | – | Kd [9]: 0.54 nM; koff [9]: 0.0014 s⁻¹; kon [9]: 2.6e+06 M⁻¹ s⁻¹; Kd (pro-IGF2^1-104): 0.39 nM; koff (pro-IGF2^1-104): 0.0005 s⁻¹; kon (pro-IGF2^1-104): 1.29e+06 M⁻¹ s⁻¹; Kd (pro-IGF2^1-156): 1.13 nM; koff (pro-IGF2^1-156): 0.0003 s⁻¹; kon (pro-IGF2^1-156): 230000 M⁻¹ s⁻¹
13 | B13 | – | – | – | – | – | – | – | – | Kd (pro-IGF2^1-104): 4.41 nM; koff (pro-IGF2^1-104): 0.002 s⁻¹; kon (pro-IGF2^1-104): 520000 M⁻¹ s⁻¹; Kd (pro-IGF2^1-156): 2.71 nM; koff (pro-IGF2^1-156): 0.0008 s⁻¹; kon (pro-IGF2^1-156): 290000 M⁻¹ s⁻¹
